The target in series [1] is N-Flag-human Mcl-1 C16A, C286A, Δ328-361, with a carboxyl-terminal hexa-His tag and a terminal Cys (human) (UniProt Q07820).
Series [2] concerns the molecule itself. Put plainly: cross-linking; Bak conjugated onto liposomes (2 mol% Mal-PEG3-PE, 1 mol% DOGS-NTA-Ni, 2 mg lipid/ml), 100 mM KCl, 10 mM Hepes pH 7.0, 1 h at room temperature with Bim BH3 peptide (…-OH); proteoliposomes recovered by centrifugation; 0.5 mM BS3, 1 h at room temperature; SDS-PAGE and anti-Bak immunoblot. On the technique in general: A western blot detects proteins with antibodies after separation by electrophoresis.

Chain of N-Flag-human Mcl-1 C16A, C286A, Δ328-361, with a carboxyl-terminal hexa-His tag and a terminal Cys (human) (Q07820 1-327 C16A/C286A): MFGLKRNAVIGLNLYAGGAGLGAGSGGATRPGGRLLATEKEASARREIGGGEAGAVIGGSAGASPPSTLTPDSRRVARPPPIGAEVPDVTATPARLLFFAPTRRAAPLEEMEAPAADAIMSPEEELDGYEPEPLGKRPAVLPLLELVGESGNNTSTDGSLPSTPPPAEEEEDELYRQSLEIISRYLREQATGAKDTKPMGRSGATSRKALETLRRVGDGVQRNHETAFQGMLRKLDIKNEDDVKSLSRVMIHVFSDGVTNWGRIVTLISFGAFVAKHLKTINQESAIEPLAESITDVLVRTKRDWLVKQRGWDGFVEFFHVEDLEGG

With Noxa BH3 peptide, in series [1], the tBid-induced (40 nM), Bak-dependent calcein release from proteoliposomes: molar excess of Noxa BH3 peptide relative to Mcl-1 that overcame the inhibition by Mcl-1 (molar excess relative to Mcl-1) was 2.5.

B1: N-Flag-human Bak C14A, C166A, ΔC186-211, with a carboxyl-terminal hexa-His tag and a terminal Cys (domain or fragment, UniProt Q16611 1-185, looked up)
chain: MASGQGPGPPRQEAGEPALPSASEEQVAQDTEEVFRSYVFYRHQQEQEAEGVAAPADPEMVTLPLQPSSTMGQVGRQLAIIGDDINRRYDSEFQTMLQHLQPTAENAYEYFTKIATSLFESGINWGRVVALLGFGYRLALHVYQHGLTGFLGQVTRFVVDFMLHHAIARWIAQRGGWVAALNLGN
modifications: terminal Cys linked covalently to the liposome lipid Mal-PEG3-PE (where that lipid was included)
notes: Bak, human; the C-terminal TM segment (ΔC186-211) replaced by 6 His residues and a unique terminal Cys; The pET151 vector may add further N-terminal residues; also called BakΔC*; surface anchored Bak; source: E. coli BL21Star (pET151 vector), purified from the soluble extract on Ni2+-NTA resin; not shown: His6 followed by a terminal Cys, C-terminal, kept
Consider B1, for which the binding result in series [2] was “binds”.

The values above are taken from publication PMC4522062, “Obatoclax is a direct and potent antagonist of membrane-restricted Mcl-1 and is synthetic lethal with treatment that induces Bim” (BMC Cancer, 2015).
